Measured values as given in patent publication US20120184020A1, “ENGINEERED MICROORGANISMS WITH ENHANCED FERMENTATION ACTIVITY” (Verdezyne, Inc., priority 2009, published 2012).

Legend:
[1] = test system: engineered yeast (S. cerevisiae); experiment: Heterologous xylose isomerase expression in yeast (active yes/no); assay type: cell-based; settings: xylose isomerase of donor organism expressed in engineered yeast (S. cerevisiae)
[2] = Xylose isomerase activity/kinetic assay on soluble whole cell extract (sorbitol dehydrogenase coupled, NADH, A340); assay type: biochemical; settings: for Km: xylose 40-500 mM
Description: […] Louis, Mo.), and about 2 U sorbitol dehydrogenase (Roche) at about 30° C. […] A Beckman DU-800 was utilized with an Enzyme Mechanism software package (Beckman Coulter, Inc.), and the change in the A340 was monitored for 2-3 minutes.
[…] Louis, Mo.), and 2 U Sorbitol Dehydrogenase (SDH) (Roche, Indianapolis, Ind.) at about 30° C. […] A Beckman DU-800 spectrophotometer was utilized with an Enzyme Mechanism software package (Beckman Coulter, Inc, Brea, Calif.), and the change in the A340 was monitored for 2-3 minutes.
[…] Louis, Mo.), and 2 U sorbitol dehydrogenase (SDH) (Roche, Indianapolis, Ind.) at about 30° C. […] A Beckman DU-800 spectrophotometer was utilized with an Enzyme Mechanism software package (Beckman Coulter, Inc, Brea, Calif.), and the change in the A340 was monitored for 2-3 minutes.
Approximately 20 μg of soluble whole cell extract from each transformed cell line was prepared using Y-PER plus reagent as described above was incubated in a solution containing about 100 mM Tris, pH 7.5, 10 mM MgCl ? 2, 0.15 mM NADH (Sigma, St. Louis, Mo.), and 2 U Sorbitol Dehydrogenase (SDH) (Roche, Indianapolis, Ind.) at about 30° C. […] A Beckman DU-800 spectrophotometer was utilized with an Enzyme Mechanism software package (Beckman Coulter, Inc, Brea, Calif.), and the change in the A340 was monitored for 2-3 minutes.

[3] = ZWF1 (glucose-6-phosphate dehydrogenase) kinetic assay on crude extract with NADP+ or NAD+; assay type: biochemical
Description: Strain BY4742 zwf1 (ATCC Cat. No. 4011971; Winzeler E A, et al. Science 285: 901-906, 1999. PubMed: 10436161) was used as the base strain for all ZWF1 assays. The assays were performed as follows: A 5 ml overnight of the strain expressing the ZWF1 gene was grown in SCD-ura. A 50 ml culture of the strain was then grown for about 18 hours from an initial OD600 of about 0.2 until it had reached about OD600 of about 4. The cells were centrifuged at 1046×g washed twice with 25 ml cold sterile water, and resuspended in 2 ml/g Yper Plus (Thermo Scientific) plus 1×protease inhibitors (EDTA-free). The cells were allowed to lyse at room temperature for about 30 minutes with constant rotation of the tubes. The lysate was centrifuged at 16,100×g for 10 minutes at 4° C. and the supernatants were transferred to a new 1.5 ml microcentrifuge tube. Quantification of the lysates was performed using the Coomassie-Plus kit (Thermo Scientific, San Diego, Calif.) as directed by the manufacturer.
The reaction was started with 20 mM glucose-6-phosphate and the reaction was monitored at A340. The specific activity was measured as the μmol substrate/min/mg protein.

[4] = EDA activity assay: S. cerevisiae EDA extracts with saturating E. coli EDD extract (LDH coupled, NADH); assay type: biochemical; settings: EDAs expressed in S. cerevisiae, saturating E. coli EDD extract
Description: EDA genes isolated from a variety of sources were expressed in yeast and evaluated independently of EDA activity, to identify EDA activities suitable of inclusion in an engineered yeast strain. […] The activity of integrated EDAs in Thermosacc-Gold haploids, were also evaluated in this manner.
EDD extractions (adapted from Chemyan et al, Protein Science 16:2368-2377, 2007): • 1) Pellet cells in 50 ml conical tubes, 4° C., 3,000 rpm, 10 mins, discard supernatant. • 2) Resuspend in 2 ml degassed PDGH buffer (20 mM MES pH 6.5, 30 mM NaCl, 5 mM MnCl2, 0.5 mM FeCl2, 10 mM 2-mercaptoethanol, 10 mM cysteine, sparged with nitrogen gas). Move to hungate tube. • 3) Add 0.1% Triton X-100, 10 ng/ml DNase, 10 μg/ml PMSF, 10 μg/ml TAME (Na-(p-toluene sulfonyl)-L-arginine methyl ester), 100 μg/ml lysozyme. • 4) Sparge hungate tube with nitrogen gas, cap and seal. Incubate 2 hours at 37° C., swirl occasionally. • 5) Clarify by centrifugation in 2-ml tube, 4° C., 10 mins, 14,000 rpm. Keep supernatant. • 6) Treat with 150 mM pyruvate and 10 mM sodium cyanoborohydride (work in hood) to inactivate aldolase activity. Incubate 30 mins at room temperature. • 7) During incubation, pre-equilibrate PD-10 column from GE • a. Remove top cap, pour off storage buffer. • b. Cut off bottom tip, fit in 50 ml conical with adapter. • c. Pour 5 ml of 20 mM MES buffer, pH 6.5 (total of 5 times). Discard flow-through. • 8) Run sample through column, then add MES buffer to a total of 2.5 ml volume added. Discard flow-through. • 9) Run 3.5 ml 20 mM MES pH 6.5 buffer to elute protein. Discard column in appropriate waste receptacle. • 10) Perform Bradford assay (1:10 or 1:20 dilution).
• 1) Spin down in 50 ml conicals, 4° C., 3,400 rpm, 5 mins. […]
Each reaction contains 50 mM Tris-HCl, pH 7, 10 mM MgCl2, 0.15 mM NADH, 15 μg LDH, saturating amounts of EDD determined empirically (usually −100 μg), 1-50 μg EDA (depending on level of activity), and 1 mM 6-phosphogluconate. Reactions are started by the addition of 6-phosphogluconate and monitored for 5 mins at 30° C.

## Piromyces xylose isomerase: xylose isomerase from Piromyces strain E2, SEQ ID NO. 35 [reference compound]
[1]
  Active? (yes/no): Yes
[2]; soluble whole cell extract, about 30° C.
  Specific Activity: 2.02 µmol/min/mg

B1: XI-Rp5: chimera: first 5 amino acids of Piromyces xylose isomerase followed by Ruminococcus xylose isomerase, SEQ ID NO. 56 (protein)
chain: MAKEYFSNIGKIQYQGPKSTDPLSFKYYNPEEVINGKTMREHLKFALSWWHTMGGDGTDMFGCGTTDKTWGQSDPAARAKAKVDAAFEIMDKLSIDYYCFHDRDLSPEYGSLKATNDQLDIVTDYIKEKQGDKFKCLWGTAKCFDHPRFMHGAGTSPSADVFAFSAAQIKKALESTVKLGGNGYVFWGGREGYETLLNTNMGLELDNMARLMKMAVEYGRSIGFKGDFYIEPKPKEPTKHQYDFDTATVLGFLRKYGLDKDFKMNIEANHATLAQHTFQHELRVARDNGVFGSIDANQGDVLLGWDTDQFPTNIYDTTMCMYEVIKAGGFTNGGLNFDAKARRGSFTPEDIFYSYIAGMDAFALGFRAALKLIEDGRIDKFVADRYASWNTGIGADIIAGKADFASLEKYALEKGEVTASLSSGRQEMLESIVNNVLFSL
[2]; chimeric variants
  Specific Activity: 1.45 µmol/min/mg
  Km: 66.5 mM

B2: Mutant 13: S. cerevisiae ZWF1 site-directed mutant A24G/A51D (protein, UniProt P11412 2-505, looked up, variant A24G A51D)
Glucose-6-phosphate …: SEGPVKFEKNTVISVFGASGDLGKKKTFPALFGLFREGYLDPSTKIFGYDRSKLSMEEDLKSRVLPHLKKPHGEADDSKVEQFFKMVSYISGNYDTDEGFDELRTQIEKFEKSANVDVPHRLFYLALPPSVFLTVAKQIKSRVYAENGITRVIVEKPFGHDLASARELQKNLGPLFKEEELYRIDHYLGKELVKNLLVLRFGNQFLNASWNRDNIQSVQISFKERFGTEGRGGYFDSIGIIRDVMQNHLLQIMTLLTMERPVSFDPESIRDEKVKVLKAVAPIDTDDVLLGQYGKSEDGSKPAYVDDDTVDKDSKCVTFAAMTFNIENERWEGVPIMMRAGKALNESKVEIRLQYKAVASGVFKDIPNNELVIRVQPDAAVYLKFNAKTPGLSNATQVTDLNLTYASRYQDFWIPEAYEVLIRDALLGDHSNFVRDDELDISWGIFTPLLKHIERPDGPTPEIYPYGSRGPKGLKEYMQKHKYVMPEKHPYAWPVTKPEDTKDN
[3]; initial kinetic screening of S. cerevisiae ZWF1 (zwf1_sc) mutants, preliminary cofactor phenotype, NAD+ as cofactor
  NAD+ usage: Yes
[3]; initial kinetic screening of S. cerevisiae ZWF1 (zwf1_sc) mutants, preliminary cofactor phenotype, NADP+ as cofactor
  NADP+ usage: No
[3]; initial kinetic screening of S. cerevisiae ZWF1 mutants
  cofactor utilization (NAD+ / NADP+): enabled NAD+ utilization with concomitant loss of NADP+ utilization

B3: R. flavefaciens, FD-1 XI: xylose isomerase of Ruminococcus flavefaciens FD1, ZP_06143883.1, SEQ ID NO: 110 (protein, listed as Ruminococcus flavefaciens)
chain: MEFFKNISKIPYEGKDSTNPLAFKYYNPDEVIDGKKMRDIMKFALSWWHTMGGDGTDMFGCGTADKTWGENDPAARAKAKVDAAFEIMQKLSIDYFCFHDRDLSPEYGSLKDTNAQLDIVTDYIKAKQAETGLKCLWGTAKCFDHPRFMHGAGTSPSADVFAFSAAQIKKALESTVKLGGTGYVFWGGREGYETLLNTNMGLELDNMARLMKMAVEYGRSIGFKGDFYIEPKPKEPTKHQYDFDTATVLGFLRKYGLDKDFKMNIEANHATLAQHTFQHELCVARTNGAFGSIDANQGDPLLGWDTDQFPTNIYDTTMCMYEVIKAGGFTNGGLNFDAKARRGSFTPEDIFYSYIAGMDAFALGYKAASKLIADGRIDSFISDRYASWSEGIGLDIISGKADMAALEKYALEKGEVTDSISSGRQELLESIVNNVIFNL
[2]; 500 mM xylose, 100 μg total soluble crude extract, expressed in S. cerevisiae
  activity (slope) at saturating xylose (FIG. 25): highest activity of the candidates tested
[2]; xylose concentrations between 40 and 500 nM (so in the source)
  specific activity relative to native XI control activity: greater than 2 fold

B4: XI-Rp10: chimera: first 10 amino acids of Piromyces xylose isomerase then amino acids 11 to 438 of Ruminococcus enzyme, SEQ ID NO. 58 (protein)
chain: MAKEYFPQIQQYQGPKSTDPLSFKYYNPEEVINGKTMREHLKFALSWWHTMGGDGTDMFGCGTTDKTWGQSDPAARAKAKVDAAFEIMDKLSIDYYCFHDRDLSPEYGSLKATNDQLDIVTDYIKEKQGDKFKCLWGTAKCFDHPRFMHGAGTSPSADVFAFSAAQIKKALESTVKLGGNGYVFWGGREGYETLLNTNMGLELDNMARLMKMAVEYGRSIGFKGDFYIEPKPKEPTKHQYDFDTATVLGFLRKYGLDKDFKMNIEANHATLAQHTFQHELRVARDNGVFGSIDANQGDVLLGWDTDQFPTNIYDTTMCMYEVIKAGGFTNGGLNFDAKARRGSFTPEDIFYSYIAGMDAFALGFRAALKLIEDGRIDKFVADRYASWNTGIGADIIAGKADFASLEKYALEKGEVTASLSSGRQEMLESIVNNVLFSL
[2]; chimeric variants
  Specific Activity: 2.10 µmol/min/mg
  Km: 75.8 mM

B5: XI-Rp15: chimera: first 15 amino acids of Piromyces xylose isomerase then amino acids 16 to 438 of Ruminococcus enzyme, SEQ ID NO. 60 (protein)
chain: MAKEYFPQIQKIKFEKSTDPLSFKYYNPEEVINGKTMREHLKFALSWWHTMGGDGTDMFGCGTTDKTWGQSDPAARAKAKVDAAFEIMDKLSIDYYCFHDRDLSPEYGSLKATNDQLDIVTDYIKEKQGDKFKCLWGTAKCFDHPRFMHGAGTSPSADVFAFSAAQIKKALESTVKLGGNGYVFWGGREGYETLLNTNMGLELDNMARLMKMAVEYGRSIGFKGDFYIEPKPKEPTKHQYDFDTATVLGFLRKYGLDKDFKMNIEANHATLAQHTFQHELRVARDNGVFGSIDANQGDVLLGWDTDQFPTNIYDTTMCMYEVIKAGGFTNGGLNFDAKARRGSFTPEDIFYSYIAGMDAFALGFRAALKLIEDGRIDKFVADRYASWNTGIGADIIAGKADFASLEKYALEKGEVTASLSSGRQEMLESIVNNVLFSL
[2]; chimeric variants
  Specific Activity: 1.53 µmol/min/mg
  Km: 49.3 mM

B6: Codon-optimized EDA from P. aeruginosa: codon-optimized version of the P. aeruginosa EDA gene (protein, UniProt O68283 1-220, looked up)
2-dehydro-3-deoxy-phosphogluco …: MHNLEQKTARIDTLCREARILPVITIDREADILPMADALAAGGLTALEITLRTAHGLTAIRRLSEERPHLRIGAGTVLDPRTFAAAEKAGASFVVTPGCTDELLRFALDSEVPLLPGVASASEIMLAYRHGYRRFKLFPAEVSGGPAALKAFSGPFPDIRFCPTGGVSLNNLADYLAVPNVMCVGGTWMLPKAVVDRGDWAQVERLSREALERFAEHRRH
modifications: codon-optimized gene
[4]
  EDA activity compared (in words): slight improvement over the native sequence
